Assay results from US20200299367A1 (ARIZONA BOARD OF REGENTS ON BEHALF OF ARIZONA STATE …, published 2020).
One block for each binder: values may come before it.

Biological target: T1, bovine serum albumin (bovine, UniProt P02769 25-607)
T1 construct: also called BSA
Assay: AFM single clone screening, phage on mica coated with antigen

T1 sequence (P02769 25-607 limits assumed): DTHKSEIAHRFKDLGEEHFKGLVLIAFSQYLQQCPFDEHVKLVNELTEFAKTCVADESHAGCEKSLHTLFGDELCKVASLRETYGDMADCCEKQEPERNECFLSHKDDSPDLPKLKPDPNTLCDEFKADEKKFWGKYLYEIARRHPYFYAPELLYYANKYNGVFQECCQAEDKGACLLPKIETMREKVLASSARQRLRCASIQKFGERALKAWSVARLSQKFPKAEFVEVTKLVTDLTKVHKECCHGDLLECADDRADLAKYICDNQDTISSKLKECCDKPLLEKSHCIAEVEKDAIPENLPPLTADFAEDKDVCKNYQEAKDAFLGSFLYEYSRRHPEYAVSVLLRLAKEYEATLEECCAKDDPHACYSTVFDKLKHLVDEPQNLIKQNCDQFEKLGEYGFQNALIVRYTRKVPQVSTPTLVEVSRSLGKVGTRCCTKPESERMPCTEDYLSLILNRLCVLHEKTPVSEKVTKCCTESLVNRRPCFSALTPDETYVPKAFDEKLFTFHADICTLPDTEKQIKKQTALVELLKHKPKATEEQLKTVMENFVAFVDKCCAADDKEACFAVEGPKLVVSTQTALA

binding result: no binding
B1: F9T scFv (scFv)
scFv: QVQLQESGGGVVQPGRSLRLSCAASGFTFSTSGMHWVRQAPGKGLEWVAFILHDGSDKYYADSVKGRFTISRDNSKNTLYLQMNSLRAEDTAIYYCAKSQRELLGAEYLQNWGQGTLVTVSSGGGGSGGGGSGGGGSQSALTQPASVSGSPGQSITISCTGTSSDVGGYKYVSWYQQHPGKAPKVMIYDVSNRPSGVSNRFSGSKSGNTASLTISGLQAEDEADYYCSSYTSSSTLVFGGGTKVTVLGAAAHHHHHHGAAEQKLISEED
notes: Expressed from pIT2 with a hexahistidine tag and a c-myc tag; the format is named under assay; also called F9T nanobody; F9 (clone before frame-shift repair)

binding result: no binding
B2: D4G scFv (scFv)
scFv: QVQLVASGGDLIQPGGSLRLSCAASGFTFNNYWMTWVRQAPGKGLEWVANIKQDGGEKYYVDSVKGRFTISRDNAKTSLYLQMNSLRAEDTAVYYCAKESYSTGWFDHWGQGTLVTVSSGGGGSGGGGSGGGGSNFMLTQDPAVSVALGQTVRITCQGDSLRKYYTSWYQQKPGQAPLLVMYAKNNRPSGIPDRFSGSSSGNTASLTITGAQAEDEADYYCDSRDSSGDHWVFGGGTKLTVLGAAAEQKLISEEDLNGAA
notes: also called D4 (clone before frame-shift repair)

binding result: no binding
B3: G12C scFv (scFv)
scFv: RVQLVESGAEVTKPGASVRVSCKASGYTFSRYDINWVRQASGQGLEWMGWINPNSGNTGYAQKFQGRVTMTRNISITTAYMELSSLRSEDTAVYYCARGLPEFDPWGQGTLVTVSSGGGGSGGGGSGGGGSHVILTQDPAVSVALGQTVRITCQGDSLRSYYASWYQQKPGQAPVLVIYGKNNRPSGIPDRFSGSSSGNTASLTITGAQAEDEADFYCNSRDSSGTHLEVFGGGTKVTVLGAAAEQKLISEEDLNGAA
notes: also called G12 (clone before frame-shift repair)
